T1: BMPR-1A (aortic SMC, BMPR-1B siRNA) (Mus musculus, UniProt P36895)
T1 chain: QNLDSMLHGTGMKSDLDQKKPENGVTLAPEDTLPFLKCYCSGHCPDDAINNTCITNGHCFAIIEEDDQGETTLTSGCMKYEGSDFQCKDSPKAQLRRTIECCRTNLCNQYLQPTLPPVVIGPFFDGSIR

T2: BMPR-1A/BMPR-1B (aortic SMC) (Mus musculus, UniProt P36895)
T2 chain 1: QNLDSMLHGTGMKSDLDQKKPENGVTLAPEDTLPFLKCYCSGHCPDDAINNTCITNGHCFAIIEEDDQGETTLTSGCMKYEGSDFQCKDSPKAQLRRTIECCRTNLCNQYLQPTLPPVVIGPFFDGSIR
T2 chain 2: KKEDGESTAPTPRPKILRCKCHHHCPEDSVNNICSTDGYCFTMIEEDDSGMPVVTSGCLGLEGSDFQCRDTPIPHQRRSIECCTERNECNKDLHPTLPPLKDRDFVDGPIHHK

T3: BMPR-1B (aortic SMC, BMPR-1A siRNA) (Mus musculus, UniProt P36898)
T3 chain: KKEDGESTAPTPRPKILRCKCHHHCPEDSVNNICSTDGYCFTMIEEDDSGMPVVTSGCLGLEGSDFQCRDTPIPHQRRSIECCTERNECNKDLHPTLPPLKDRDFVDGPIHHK

T4: BMPR-1A (Mus musculus, UniProt P36895)
T4 chain: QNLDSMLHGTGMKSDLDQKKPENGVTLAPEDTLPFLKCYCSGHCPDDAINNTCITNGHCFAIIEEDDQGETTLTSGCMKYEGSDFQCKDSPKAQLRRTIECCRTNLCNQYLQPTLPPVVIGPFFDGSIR

T5: BMPR-1A/BMPR-1B (Mus musculus, UniProt P36895)
T5 chain 1: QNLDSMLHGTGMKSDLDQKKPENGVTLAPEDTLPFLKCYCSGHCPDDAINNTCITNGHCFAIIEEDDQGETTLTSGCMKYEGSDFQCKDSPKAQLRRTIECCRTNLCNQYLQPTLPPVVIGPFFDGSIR
T5 chain 2: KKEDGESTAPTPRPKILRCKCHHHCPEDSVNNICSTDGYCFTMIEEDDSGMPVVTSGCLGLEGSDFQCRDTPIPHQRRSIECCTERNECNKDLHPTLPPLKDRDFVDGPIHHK

T6: BMPR-1B (Mus musculus, UniProt P36898)
T6 chain: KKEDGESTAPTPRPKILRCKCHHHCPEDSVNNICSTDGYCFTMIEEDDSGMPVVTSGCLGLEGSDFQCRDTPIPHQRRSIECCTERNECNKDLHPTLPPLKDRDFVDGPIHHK

T7: BMPR-2 (Mus musculus, UniProt O35607)
T7 chain: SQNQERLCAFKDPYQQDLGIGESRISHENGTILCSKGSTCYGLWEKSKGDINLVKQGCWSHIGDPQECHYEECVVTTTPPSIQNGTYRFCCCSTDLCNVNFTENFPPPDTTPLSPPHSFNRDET

T8: BMPR-1A/BMPR-1B (aortic SMC) (Homo sapiens, UniProt P36894)
T8 chain 1: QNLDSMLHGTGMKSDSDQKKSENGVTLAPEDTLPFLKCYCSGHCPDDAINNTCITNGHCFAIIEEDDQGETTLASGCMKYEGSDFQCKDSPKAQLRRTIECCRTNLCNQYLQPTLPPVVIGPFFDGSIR
T8 chain 2: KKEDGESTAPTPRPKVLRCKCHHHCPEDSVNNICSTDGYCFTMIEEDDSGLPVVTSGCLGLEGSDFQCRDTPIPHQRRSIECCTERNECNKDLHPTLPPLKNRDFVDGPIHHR


Tests used:
[1] = molecular target: T1, BMPR-1A (aortic SMC, BMPR-1B siRNA); assay: FITC-ligand cell membrane binding, Scatchard
[2] = molecular target: T2, BMPR-1A/BMPR-1B (aortic SMC); assay: FITC-ligand cell membrane binding, Scatchard
[3] = molecular target: T3, BMPR-1B (aortic SMC, BMPR-1A siRNA); assay: FITC-ligand cell membrane binding, Scatchard
BMPR-1A = molecular target: T4, BMPR-1A; assay: FITC-ligand binding to transfected 293T, Scatchard
BMPR-1A/BMPR-1B = molecular target: T5, BMPR-1A/BMPR-1B; assay: FITC-ligand binding to transfected 293T, Scatchard
BMPR-1B = molecular target: T6, BMPR-1B; assay: FITC-ligand binding to transfected 293T, Scatchard
BMPR-2 = molecular target: T7, BMPR-2; assay: FITC-ligand binding to transfected 293T, Scatchard
[4] = molecular target: T8, BMPR-1A/BMPR-1B (aortic SMC); assay: FITC-ligand cell membrane binding, Scatchard

| Binder | Kd [1] [nM] | Kd [2] [nM] | Kd [3] [nM] | Kd (BMPR-1A) [nM] | Kd (BMPR-1A/BMPR-1B) [nM] | Kd (BMPR-1B) [nM] | Kd (BMPR-2) [nM] | Kd [4] [nM] |
| --- | --- | --- | --- | --- | --- | --- | --- | --- |
| mEar1 (protein) LGQTPSQKFAIQHINNNTNLQCNVEMMRINRARRTCKGLNTFLHTSFANAVGVCGNPSGLCSDKRSQNCHNSSSRVHITVCNITSRATNYTQCRYQSRRSLEYYTVACDPRTPQDSPMYPVVPVHLDGTF | 9.14 | 15.8 | 11.1 | 10.6 | 15.5 | 9.45 | 6.09 | – |
| EDN (protein) KPPQFTWAQWFETQHINMTSQQCTNAMQVINNYQRRCKNQNTFLLTTFANVVNVCGNPNMTCPSNKTRKNCHHSGSQVPLIHCNLTTPSPQNISNCRYAQTPANMFYIVACDNRDQRRDPPQYPVVPVHLDRII | – | – | – | – | – | – | – | 11.6 |
| ECP (protein) RPPQFTRAQWFAIQHISLNPPRCTIAMRAINNYRWRCKNQNTFLRTTFANVVNVCGNQSIRCPHNRTLNNCHRSRFRVPLLHCDLINPGAQNISNCTYADRPGRRFYVVACDNRDPRDSPRYPVVPVHLDTTI | – | – | – | – | – | – | – | 14.9 |

— publication PMC10393071 (2023)
